Results published in the DeepSol protein solubility set.

Assay: soluble on expression in E. coli; label from the status in PepcDB or PDB records

Row | Sequence | soluble on expression in E. coli
1 | MSLIPDVSQALAWLEKHPQALKGIQRGLERETLRVNADGTLATTGHPEALGSALTHKWITTDFAEALLEFITPVDGDIQHMLTFMRDLHRYTARKLGDERMWPLSMPCYIAEGQDIELAQYGTSNTGRFKTLYREGLKNRYGALMQTISGVHYNFSLPMAFWQAKCGVTEGGSGKRKISAGYFRLIRNYYRFGWVIPYLFGASPAICSSFLQGKPTTLPFEKTDCGMYYLPYATSLRLSDLGYTNKSQSNLGITFNDLHEYVAGLKRAIKTPSEEYARIGVEKDGKRLQINSNVLQIENELYAPIRPKRVTRSGESPSDALLRGGIEYIEVRSLDINPFSPIGVDEQQVRFLDLFMVWCVLADAPEMSSDELLCTRTNWNRVILERRKPGLTLGIGCETAQFPLPKVGKDLFRDLKRVAQTLDSIHGGEEYQKVCDELVACFDNPELTFSARILRSMIDEGIGGTGKAFGEAYRNLLREEPLEILQEEEFIAERDASVRRQQEIEAADTEPFAAWLAKHAEGGSHHHHHH | soluble
2 | MKVGIIMGSVRAKRVCPEIAAYVKRTIENSEELIDQKLKIQVVDLQQIALPLYEDDDELIPAQIKSVDEYADSKTRSWSRIVNALDIIVFVTPQYNWGYPAALKNAIDRLYHEWHGKPALVVSYGGHGGSKCNDQLQEVLHGLKMNVIGGVAVKIPVGTIPLPEDIVPQLSVHNEEILQLLASCIETTRNK | soluble
3 | MGSDKIHHHHHHMHSSEIRYFLVVATTGSLSAASQHLFVAVSAISRQIQRLEERIGVPLFERHARGMVLNDAGRILENHVRKSMMDMDAAVAEIQGLKASRRALLRIGCTEGMAFDLLPTLFARFRQHDPDTTFALKVDSAMQVSQMIRNGEVDIALQFALAPEQGVNVELALPAPLMLLMSDEHPLAQQSIQLADLHPFPLALPESSTTLRQLFDLSCRMNGTFLEPTLCCNNFTTLYYYAMSTPGAVTACSFYSVMYKCLQEPMRLKPLNIKQLDQRSLQIQTLAGKAHAPQQQAFLDFMMAELRQGEAYYLSHMATDMV | not soluble
4 | QVQLQQSGPELVRPGVSVKISCKGSGYTFIDEALHWVKQSHAESLEWIGVIRPYSGETNYNQKFKDKATMTVDISSSTAYLELARLTSEDSAIYYCARDWERGDFFDYWGQGTLVTVSSASTKGPSVFPLAPSSKSTSGGTAALGCLVKDYFPEPVTVSWNSGALTSGVHTFPAVLQSSGLYSLSSVVTVPSSSLGTQTYICNVNHKPSNTKVDKKVEPKSCD | soluble
5 | MSLALDHVGIATEDAAGLAERFGAVFETQIAHSETFDGMYIIFLDMNGTYLELLEPVDDSDGPIATFLAQRDAGIHHIAIMTEDIATALENARAVGIECIDETPRQGAWGHQVAFLHPRSTGGVLCEFVQQEGHHHHHH | soluble
6 | GSHMARYDSLLQALGNTPLVGLQRLSPRWDDGRDGPHVRLWAKLEDRNPTGSIKDRPAVRMIEQAEADGLLRPGATILEPTSGNTGISLAMAARLKGYRLICVMPENTSVERRQLLELYGAQIIFSAAEGGSNTAVATAKELAATNPSWVMLYQYGNPANTDSHYCGTGPELLADLPEITHFVAGLGTTGTLMGTGRFLREHVANVKIVAAEPRYGEGVYALRNMDEGFVPELYDPEILTARYSVGAVDAVRRTRELVHTEGIFAGISTGAVLHAALGVGAGALAAGERADIALVVADAGWKYLSTGAYAGSLDDAETALEGQLWA | soluble
7 | MPVDRGAVRDAAKYLRGVRPLDPAALREYVPGQPHEAVVRQVLREQAADLGIIERADGTFVVPPEEPVGPPFNGVSALPERYERVVEAELTAAYGPDWHRGDTGDSLRETIRRFKDDYYRRNPVEYDREVALGYAVYHLAGYYAAVQYVLAGLARDGLLGHDLRVLDLGAGVGGPAVGLFDFLPDEALVEYHAVEPSAAADVLDALLAETPRNVHTTIHRETAESFQPAGEYDLVLACSVLSELDDAASVLRKYADAMAADGTALALAPADKHTSTHLRAVERAVEDDPFTVYGPTPRLWPDRRPTDSGWSFDERPAVEVPAVQSRLADASQDPGEFRHTDVRFSYSLLRRDDRRRHAVELSGDRLLALGDADDRVTDRADLLVAKLSRNLAGADANPVFRVSDGSQTTDCYAVLVRPTSLNGGIEAADYGDLVSIEDALVLWNDDEDAYNLVVDEETVVDAV | not soluble
8 | KRRAALNLRIFATEGAMMLGVTLSRLEGRSFIERSPGRRPFFKPGPLSPRLSRAFVNLSRLQRGGSFADPFCGTGGFAIEACLLGASRIACGDLDWAMVRGGPLNLSRYCPPGIWFYSAWNAAKLPLSSNSVDSIATDPPYGRSTTTGRMGYLSLTRAFLNTAVEVLRSEGWIVYAGPTRMSPETLAEDAGLRVVKVIEMFVHGSLTRSIVVARFG | not soluble
9 | MSLKLSAREWKDFSLEELFTVRGTKTTPLIILRKNNKKREKQLPYVTTKSTYNGIDDFFSGFTEEGNVITIDSATDGYVFYQLNNFSASDHVEKLIPKFKLNKYIALFLVNCIKKATKCKYGYGYKFSQTRIKRQKIMLPASNNQPDFQFMERYIKEKHFNLKSRIKEKQNHEINDWRELDDVEWTPFSTSEVFNNIQRGKRLTKSNQIKGLTPYISSSGINNGLDNFISNNEKIREFDNCLTIANSGSVGSAFYHTYRFIASDHVTHLKNNNLNKFSYLFIANMLRRLEGKYSFNRGINDFRIKRERILLPTKNNRPEYEFMEQYMKRKENEILDRLEGHHHHHH | not soluble
10 | SLYMDTAVSPFYFVSNAPRELLDGVSQTLASRDQLELENRALRQELLLKNSELLMLGQYKQENARLRELLGSPLRQDEQKMVTQVISTVNDPYSDQVVIDKGSVNGVYEGQPVISDKGVVGQVVAVAKLTSRVLLICDATHALPIQVLRNDIRVIAAGNGCTDDLQLEHLPANTDIRVGDVLVTSGLGGRFPEGYPVAVVSSVKLDTQRAYTVIQARPTAGLQRLRYLLLLWGADRNGANPMTPEEVHRVANERLMQMMPQVLPSPDAMGPKLPEPATGIAQPTPQQPATGNAATAPAAPTQPAANRSPQRATPPQSGAQPPARAPGGQ | soluble
11 | MRKSRLSQHKQNKLIELFVAGVTARTASKLVNVNKNTATITFIDYAYSFIKQAHIWKCLKAKLKPMKAISAVLEKANVVAVLQGKSQYSGFSNEMQGLYRRCS | not soluble
12 | MTLFDRKTFDRVLGEWPGVRFVDQWDSHVAKVGDKVFAVLGEREDWRLVVKCSEESFEILTSLEGIAQAPYFAKRKWISIGDHSPLEQEELEHYVRRSYELVAAGLTKKLRGELGIVIDNAPRL | soluble
13 | MSLNSMKDAFNREIDYVRLSLTDRCDLRCTYCMPATGLCFLKKEQLLTDDEIIFLLRILAKEDIKKVKLTGGEPLVRPNLLSLIKRIKQISGIEKVTLTTNGMKLAREAQGLKEAGLDGINISLDTLDPEEFREITRVGQLRNVLAGLEQAIDVGLPNIKINTVARKELSEATIVELAEIAKKETVHLRFIEMMPIGLGKEHPGKQQEEVEAILTKYYGTLQPYQKPLGNGPASYYALKDFKGKIGFISALGHCFCETCNRIRITADGHLKTCLHSADGYSLKEALAMEQTAELLGIIKSGIACKPEKHLFLEQQGEQRFMSQIGGEGHHHHHH | not soluble
14 | MIAGPLGRASELHRYEGNQTVVFCAGGVGLPPVYPIMREHLRLGNHVTLISGFRAKEFLFWTGDDERVGKLKKEFGDQLSLIYTTNDGSYGVKGFVTGPLEEMMKANQEGKGRSIAEVIAIGPPLMMRAVSDLTKPYGVKTVASLEHHHHHH | not soluble
15 | MANRMILNETAWFGRGAVDALTDEVTRRGYHKALIVTDKTLVQCGVVDKVTSRMDAAGLAWEIYAGVIPNPTISVVQEGLKVFTQSGADYLIAIGGGSPQDTCKAIGIISNNPEFADVRSLEGLSPTRKPSVPIMAIPTTAGTAAEVTINYVITDEEKRRKFVCVDPHDIPQAAFIDADMMDGMPPALKAATGVDALTHAIEGYITRAAWALTDALHIKAIEIIAGALRGAVAGEKEAGEAMALGQYVAGMGFSNVGLGLVHGMAHPLGAFYNTPHGVANAILLPHVMRFNAGSTNEKFRDIARAMGVKVEGLSLEEARNAAVEAVFTLNRDVGIPLHLRDVGVRKEDIPALAQAAFDDVCTGGNPREASLADIVELYHTAW | not soluble
16 | MYNIGDKIVYPMHGAGVIESIEEREILGKKQSYYVVKIPIGEMKVLIPIKNVDGIGIREVISEEDADKVFLILKNKALPSNTNWNKRYRENMSKIKSGNIFEVADVVRCLMLRDKLKGLSTGEKKMLNSAKQILISELVLAKNMNPMEIEGMIDKYIS | soluble
17 | MSLSNFYKLLKEKFPRKEDIVTEMINLEAICQLPKGTEYFISDLHGEYDAVDYLLRTGAGSIRAKLLDCFDWQKIVAVDLDDFCILLYYPKEKLAFDKMNLSASAYKTKLWEMIPLQIQVLKYFSSKYTKSKVRKQLSGKFAYIIEELLAEIDRNPEKKSYFDTIIEKLFELDQVEDLIIVLSQTIQVLIIDHLHVVGDIYDRGRYPDRILNRLMAFPNLDIQWGNHDVTWMGAASGSYLCMVNVIRIAARYNNITLIEDRYGINLRRLVDYSRRYYEPLPSFVPILDGEEMTHPDELDLLNMIQQATAILQFKLEAQLIDRRPEFQMHNRQLINQVNYKDLSISIKEVVHQLKDFNSRCIDSKNPSRLTSEEEELLQQLMIAFQTSESLKKHIDFLFEKGSMYLTYNDNLLFHGCIPMHSNGDFKSFKIAGKTYGGRDLLDLFESQIRLAYARPEKHDDLATDIIWYLWCGENSSLFGKNAMTTFERYYVSDKVTHQERKNPYFKLRDKDDICTALLQEFDLPKFGHIVNGHTPVKEKNGEQPIKANGKMLVIDGGFAKGYQKNTGLAGYTLIYNSYGIQLISHLPFTSIEEVLSGTNYIIDTKRLVEEAKDRILVKDTTIGQKLTKEIKDLDHLYRHFQEYDEGHHHHHH | soluble
18 | TSGTLYLVPTPIGNLQDMTFRAVATLKEVDFICAEDTRNTGLLLKHFDIATKQISFHEHNAYEKIPDLIDLLISGRSLAQVSDAGMPSISDPGHDLVKAAIDSDIAVVALPGA | not soluble
19 | GHMQTQGLAKDAWEIPRESLRLEVKLGQGCFGEVWMGTWNGTTRVAIKTLKPGTMSPEAFLQEAQVMKKLRHEKLVQLYAVVSEEPIYIVTEYMSKGCLLDFLKGEMGKYLRLPQLVDMAAQIASGMAYVERMNYVHRDLRAANILVGENLVCKVADFGLARLIEDNEYTARQGAKFPIKWTAPEAALYGRFTIKSDVWSFGILLTELTTKGRVPYPGMVNREVLDQVERGYRMPCPPECPESLHDLMCQCWRKDPEERPTFEYLQAFLEDYFTSTEPQYQPGENL | soluble
20 | MKIAIVGAGIGGLTAAALLCEQGHEVKVFEKNSTITEVGAGIGIGGNVIDKLGKHDLAKGIKNIGQVINVMEILDDKDNVLSKAKLKKNTVNLTMTRQSLIDVIKSYVSESAIYTNHHVTHVDNNALKVVMHFEAQEAEAFDLCIGADGLHSNIRHTVAPNSKTQYQGYTVFRGLVEDIDIKSDNVAKEYWSAKGRVGVVPLLNNQAYWFISINAKENDATMQSYGKPHLQARFNHFPNEVRKVLDKQSETDILLHDIYDLQPLKTFVYQRVILLGDAAHATTPNMGQGAGQAMEDAIVLANCLQAYPFEAALQRYDKIRVDHTKKVIKRSRKIGKLAQRSNKIVISLRNSIAKIMPNRLVAAQTKFIYKSKNKLEHHHHHH | soluble
21 | MNFTRLLNQVLSTVQKKGNTFSDSPLNSFGGGALVAGVASMLLNGKNRKTITKIGSTAALGYLAYRGYQMWQQNKGRATVTQSDFQPAGETEETYSRTVLRTMIAAAASDGMIDEAERRTIEQESGTDPETAAWLAAEYRLPASIEDIAAAVGNDEALAAEAYLAARLVCADLSRKETVFLARLSQALKLDDNLVESLERQLGF | not soluble
